Our source for the stoichiometry N (ETF complex per CIII complex) values is PMC10896730.

The target of the assay is oxidative phosphorylation (OXPHOS) complex III (CIII), all subunits (mouse (endogenous in skeletal muscle)) (UniProt Q9CZ13). The assay is described as follows: affinity purification with mass spectrometry; IP of UQCRC2 from mouse hindlimb Skm extracts, LC–MS; stoichiometry from the slopes of protein abundance against effective number of tryptic peptides; approximate.
UniProt Q9CZ13, sequence (Q9CZ13 whole entry, looked up, tested part not stated, one chain of several): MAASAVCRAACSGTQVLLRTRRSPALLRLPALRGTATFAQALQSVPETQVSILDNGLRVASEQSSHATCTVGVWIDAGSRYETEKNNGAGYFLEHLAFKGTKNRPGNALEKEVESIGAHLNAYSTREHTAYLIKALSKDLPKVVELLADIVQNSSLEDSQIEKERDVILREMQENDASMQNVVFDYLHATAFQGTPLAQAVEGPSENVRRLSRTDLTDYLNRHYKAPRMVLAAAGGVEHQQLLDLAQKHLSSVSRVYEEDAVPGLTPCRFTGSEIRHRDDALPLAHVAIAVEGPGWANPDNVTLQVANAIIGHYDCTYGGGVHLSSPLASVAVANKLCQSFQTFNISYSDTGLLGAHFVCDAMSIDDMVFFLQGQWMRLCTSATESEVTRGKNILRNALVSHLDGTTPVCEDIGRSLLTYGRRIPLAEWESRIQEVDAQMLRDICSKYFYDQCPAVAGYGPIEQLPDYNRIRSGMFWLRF

B1: electron-transfer flavoprotein dehydrogenase (ETFDH) (natural protein)
chain: SSTSAVPQITTHYTVHPREKDKRWEGVNMERFAEEADVVIVGAGPAGLSAAIRLKQLAAEQGKDIRVCLVEKAAQIGAHTLSGACLDPAAFKELFPDWKEKGAPLNTPVTEDRFAILTEKHRIPVPILPGLPMNNHGNYIVRLGHLVSWMGEQAEALGVEVYPGYAAAEVLYHEDGSVKGIATNDVGIQKDGAPKTTFERGLELHAKVTVFAEGCHGHLAKQLYKKFDLRASCDAQTYGIGLKELWIIDEKKWKPGRVDHTVGWPLDRHTYGGSFLYHLNEGEPLVAVGFVVGLDYQNPYLSPFREFQRWKHHPSIQPTLEGGKRIAYGARALNEGGLQSIPKLTFPGGLLIGCSPGFMNVPKIKGTHTAMKSGSLAAESIFKQLTSENLQSKTTGLHVTEYEDNLKQSWVWKELHAVRNIRPSCHGILGVYGGMIYTGIFYWILRGMEPWTLKHKGSDSDQLKPAKDCTPIEYPKPDGQISFDLLSSVALSGTNHEHDQPAHLTLKDDSIPVNRNLSIYDGPEQRFCPAGVYEFVPLEQGDGFRLQINAQNCVHCKTCDIKDPSQNINWVVPEGGGGPAYNGM
B1 gave a stoichiometry N (ETF complex per CIII complex) of 0.5.
